Results on 40 variants are retold here after the Human Domainome abundance scans (Beltran et al. 2025).

The labels stand for the following.
B1: Dynamin-binding protein, residues 242 to 304; numbered along this chain, Q6XZF7 (parent)
chain: EEPGTYGVALYRFQALEPNELDFEVGDKIRILATLEDGWLEGSLKGRTGIFPYRFVKLCPDTR

± gives the uncertainty stated by the source.

The variants in the data set derive from B1. Put plainly: abundance fitness (aPCA) (normalised: wild type 0, dead -1); higher = more abundant; growth selection in yeast, the domain comes from the species named. The conditions noted are these: Homo sapiens.
In the case of EEPGTYGVALYRFQALEPNEDDFEVGDKIRILATLEDGWLEGSLKGRTGIFPYRFVKLCPDTR [L21D], the abundance fitness is -1.03 ± 0.39. In the case of EEPGTYGVALYRFQALEPNELPFEVGDKIRILATLEDGWLEGSLKGRTGIFPYRFVKLCPDTR [D22P], the abundance fitness stood at 0.157 ± 0.074.

Consider EEPGTYGVALYRFQALEPNELDFEVGDKIRILATLEDGWLEGSLKGRKGIFPYRFVKLCPDTR [T48K], for which the abundance fitness worked out at 0.112 ± 0.091. As for EEPGTYGVALYRFQALEPNELDFEVGHKIRILATLEDGWLEGSLKGRTGIFPYRFVKLCPDTR [D27H], the abundance fitness was -0.927 ± 0.15. To NEPGTYGVALYRFQALEPNELDFEVGDKIRILATLEDGWLEGSLKGRTGIFPYRFVKLCPDTR [E1N] belongs -0.337 ± 0.087; to EEPGTYGVALYRFQALEPNELDFEVGDKIRILATLEDGWLEGSLKGRTGIFPYRFVKLCPPTR [D61P], -0.027 ± 0.061; to EEPGTYGVALYRFQALEPNELDFEVGDKIRILATLEDGWLLGSLKGRTGIFPYRFVKLCPDTR [E41L], -0.256 ± 0.074. To EEPGTYGVALYRFQALEPNELDFEVGDKIRILATLEDGWLWGSLKGRTGIFPYRFVKLCPDTR [E41W] belongs 0.056 ± 0.13; to EEPGTYGVALYRFQALEPNELDFEVGDKIRILATLEDWWLEGSLKGRTGIFPYRFVKLCPDTR [G38W], -1.05 ± 0.28; to EEPGTYGVALYRFQALEPNELDFEVGDKIRILATLEDVWLEGSLKGRTGIFPYRFVKLCPDTR [G38V], -0.668 ± 0.074. On to EEPWTYGVALYRFQALEPNELDFEVGDKIRILATLEDGWLEGSLKGRTGIFPYRFVKLCPDTR [G4W], for which the abundance fitness is -0.312 ± 0.16.

Consider EEPGTYGVALYRFQALEPNELDFEVGDKIRPLATLEDGWLEGSLKGRTGIFPYRFVKLCPDTR [I31P], for which the abundance fitness was -0.862 ± 0.2. Take EEPGTYGVALYRFQALEKNELDFEVGDKIRILATLEDGWLEGSLKGRTGIFPYRFVKLCPDTR [P18K]: the abundance fitness was -0.336 ± 0.17. Consider EEPGTYGVALYRFQALEYNELDFEVGDKIRILATLEDGWLEGSLKGRTGIFPYRFVKLCPDTR [P18Y], for which the abundance fitness is -0.473 ± 0.077. To EEPGTYGVALYRFQALEPNELDFEVGDKIRILATLEDGWLEGSRKGRTGIFPYRFVKLCPDTR [L44R] belongs -0.367 ± 0.099; to EEPGTYGVALYRFQALEPNELDFEVGDKIRILATLEDGWLEGSVKGRTGIFPYRFVKLCPDTR [L44V], 0.012 ± 0.063; to EEPGTYGVALYRFQALEPNELDFEVGDKIRILATLEDGWLEGSLMGRTGIFPYRFVKLCPDTR [K45M], -0.317 ± 0.15.

Take EEPGTYGVALYRFQALEPNELDFEVGDKIRILATLEDGWLEGSLKLRTGIFPYRFVKLCPDTR [G46L]: the abundance fitness is -0.749 ± 0.059. To EEPGTYGVALYRFQALEPNELDFEVGDKIRILATLEDGWLEGSLKIRTGIFPYRFVKLCPDTR [G46I] belongs -0.711 ± 0.059; to EEPGTYGVALYRFQALEPNELDFEVGDKIRILATLEDGELEGSLKGRTGIFPYRFVKLCPDTR [W39E], -0.379 ± 0.17.

For EEPGYYGVALYRFQALEPNELDFEVGDKIRILATLEDGWLEGSLKGRTGIFPYRFVKLCPDTR [T5Y], the abundance fitness is -0.214 ± 0.066.

Consider EEPGTYGVALYRFQALEPNELDFEVGDKIRILATLEDGWLEGSLKGRTGIFPYRFVKLQPDTR [C59Q], for which the abundance fitness came to 0.117 ± 0.13. EEPGTYGVALYRFQAYEPNELDFEVGDKIRILATLEDGWLEGSLKGRTGIFPYRFVKLCPDTR [L16Y]: the abundance fitness is -0.137 ± 0.06. On to EEPGTYGVALYRFQALSPNELDFEVGDKIRILATLEDGWLEGSLKGRTGIFPYRFVKLCPDTR [E17S], for which the abundance fitness is -0.062 ± 0.047. With EEPGTYGVALYRFQALKPNELDFEVGDKIRILATLEDGWLEGSLKGRTGIFPYRFVKLCPDTR [E17K] the figure was 0.391 ± 0.091. With EEPGTYGVALYRFQALRPNELDFEVGDKIRILATLEDGWLEGSLKGRTGIFPYRFVKLCPDTR [E17R] the figure was 0.151 ± 0.053; with EEPGTYGVALYRFQALEPNELDFEVRDKIRILATLEDGWLEGSLKGRTGIFPYRFVKLCPDTR [G26R], -0.866 ± 0.099; with EEPGTYGVALYRFQALEPNELDFEVHDKIRILATLEDGWLEGSLKGRTGIFPYRFVKLCPDTR [G26H], -0.718 ± 0.11. As for EEPGTYGVALYRFQALEPNELDFEVKDKIRILATLEDGWLEGSLKGRTGIFPYRFVKLCPDTR [G26K], the abundance fitness was -0.643 ± 0.39. Regarding EEPGTYGEALYRFQALEPNELDFEVGDKIRILATLEDGWLEGSLKGRTGIFPYRFVKLCPDTR [V8E], the abundance fitness is -0.206 ± 0.15. As to EEPGTYGVALYRFQALEPNELDFEVGDKIRIMATLEDGWLEGSLKGRTGIFPYRFVKLCPDTR [L32M], the abundance fitness was -0.394 ± 0.17. To EEPGTYGVALYRFQALEPNELDFEVGDKIRIDATLEDGWLEGSLKGRTGIFPYRFVKLCPDTR [L32D] belongs -0.495 ± 0.069; to EEPGTYGVALYRFQALEPNELDFEVGDKIRILATLEDGWLEGSLKGRTGIFPYRFVKLCPDCR [T62C], -0.198 ± 0.062. Regarding EEPGTYGVALYRFQALEPNELDFMVGDKIRILATLEDGWLEGSLKGRTGIFPYRFVKLCPDTR [E24M], the abundance fitness is -0.313 ± 0.2.

As to EEPGTYGVALYRFQALEPNELDFGVGDKIRILATLEDGWLEGSLKGRTGIFPYRFVKLCPDTR [E24G], the abundance fitness was -0.596 ± 0.073. With EEPGTYGVALYRFQALEPNELDFWVGDKIRILATLEDGWLEGSLKGRTGIFPYRFVKLCPDTR [E24W] the figure was -0.438 ± 0.15; with EEPGTYGVADYRFQALEPNELDFEVGDKIRILATLEDGWLEGSLKGRTGIFPYRFVKLCPDTR [L10D], -0.679 ± 0.11; with EEPGTYGVALYRFQALEPNELDFEVGDIIRILATLEDGWLEGSLKGRTGIFPYRFVKLCPDTR [K28I], -0.278 ± 0.084. With EEPGTYGVALYAFQALEPNELDFEVGDKIRILATLEDGWLEGSLKGRTGIFPYRFVKLCPDTR [R12A], the abundance fitness is 0.177 ± 0.06. With EEWGTYGVALYRFQALEPNELDFEVGDKIRILATLEDGWLEGSLKGRTGIFPYRFVKLCPDTR [P3W] the figure was -0.19 ± 0.29.
